Drawing on patent publication US20170291955A1 (AstraZeneca / MedImmune, published 2017), this text covers binding result and Kd for seven molecules.

Assay [1] addresses T1, human EGFR recombinant extracellular domain protein (human, UniProt P00533 25-645).
T1 construct: extracellular domain
Briefly: capture ELISA as in Example 1. The method, then:
(§1) Antibody to be tested was prepared by diluting in a stepwise 1:3 serial dilution ranging from 50 nM down to 0.28 pM and then added to the wells in duplicate. After one hour of incubation, plates were washed, and goat anti-human IgG Fab HRP-conjugated secondary antibody was added to each well and the plates were incubated for 1 hour. The plates were washed and TMB substrate was added and incubated for 5-20 min to allow color development. The stop solution was added to the wells at the end of reaction and the plates were read at 450 nm. Binding signal (absorbance at 450 nm) was plotted against antibody concentration using Prism software.
(In general: An ELISA detects its analyte on a solid surface through an enzyme-linked reagent.)

For assay [2], the target named is T2, human HER3 recombinant extracellular domain protein (human, UniProt P21860 20-643).
T2 construct: extracellular domain
Put plainly: capture ELISA as in Example 1. The method, then:
as §1

The target in assay [3] is T3, human HER4 recombinant extracellular domain protein (human, UniProt Q15303 26-651).
T3 construct: extracellular domain
T3 sequence (looked up): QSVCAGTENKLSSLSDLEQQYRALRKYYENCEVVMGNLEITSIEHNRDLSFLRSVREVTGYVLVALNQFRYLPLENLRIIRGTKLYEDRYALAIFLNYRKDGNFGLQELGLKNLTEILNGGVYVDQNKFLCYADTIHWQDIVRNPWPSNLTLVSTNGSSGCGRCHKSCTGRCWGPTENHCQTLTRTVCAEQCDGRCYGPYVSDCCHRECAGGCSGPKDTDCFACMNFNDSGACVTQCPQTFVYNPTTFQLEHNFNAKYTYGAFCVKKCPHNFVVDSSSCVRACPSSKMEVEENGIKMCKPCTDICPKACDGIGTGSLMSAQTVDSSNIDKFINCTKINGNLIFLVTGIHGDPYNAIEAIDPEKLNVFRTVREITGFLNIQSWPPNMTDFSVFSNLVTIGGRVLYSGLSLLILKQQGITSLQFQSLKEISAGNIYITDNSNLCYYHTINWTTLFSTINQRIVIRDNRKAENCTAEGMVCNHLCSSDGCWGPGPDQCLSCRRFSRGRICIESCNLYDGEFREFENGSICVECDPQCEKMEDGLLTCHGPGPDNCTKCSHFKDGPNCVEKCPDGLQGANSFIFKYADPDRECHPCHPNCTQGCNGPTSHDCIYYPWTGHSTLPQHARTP
Put plainly: capture ELISA as in Example 1. The method, then: as §1

Another assay has as its target C1q (Homo sapiens (Human), UniProt P02745 23-245; P02746 28-253; P02747 29-245). Put plainly: BIAcore per table head; method for C1q not described. A general note: Surface plasmon resonance follows binding to a sensor surface in real time, without labels.
The next assay addresses T4, human FcγRIIIA-158F (human, UniProt P08637 17-208).
T4 construct: also called FcgRIIIa (158F)
Put plainly: SPR, antibody immobilised, receptor injected, steady-state fit (table head: BIAcore; paragraph 688: ProteOn XPR36). The method, then: (§2) The binding constants (KD) for the binding of anti-HER2 bispecific antibodies to human FcγRs were measured on a ProteOn XPR36 instrument. Briefly, the bispecific antibodies were immobilized at high density on a GLC sensor chip using a standard amino coupling chemistry as outlined by the instrument manufacturer. The final surface density of IgG measured approximately 3000 RU. A reference flow cell was also prepared on this sensor chip using the identical immobilization protocol minus protein. […] Each concentration of FcγR was injected over both the bispecific antibody and reference cell surfaces at a flow rate of 25 μL/min for 8 min, during which binding data were collected. Between injections, the surfaces were regenerated (i.e., bound FcγR was removed) with a 60-sec pulse of 5 mM HCl. Several buffer injections were also interspersed throughout the injection series. Later, one of these buffer injections along with the reference cell data was used to correct the binding data for any injection artifacts (e.g., nonspecific binding) through a technique commonly referred to as “double-referencing” (Myszka, 1999). After all binding data were collected, individual data sets were averaged for binding (Response at equilibrium [Req]) at each concentration (C), and then fit to a 1:1 binding isotherm (Req vs. C) plot.

The next assay concerns the target T5, human FcγRIIb (human, UniProt P31994 43-217).
T5 construct: also called FcgRIIb
T5 sequence (looked up): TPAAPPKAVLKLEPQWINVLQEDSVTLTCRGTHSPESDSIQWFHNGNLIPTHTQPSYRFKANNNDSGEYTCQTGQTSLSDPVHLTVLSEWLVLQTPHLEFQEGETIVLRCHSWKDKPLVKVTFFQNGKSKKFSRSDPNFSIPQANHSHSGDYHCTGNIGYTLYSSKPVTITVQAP
The assay is described as above. The method, then:
as §2

Another assay has as its target T6, human FcγRIIA (human, UniProt P12318 36-218).
T6 construct: also called FcgRIIa
T6 sequence (looked up): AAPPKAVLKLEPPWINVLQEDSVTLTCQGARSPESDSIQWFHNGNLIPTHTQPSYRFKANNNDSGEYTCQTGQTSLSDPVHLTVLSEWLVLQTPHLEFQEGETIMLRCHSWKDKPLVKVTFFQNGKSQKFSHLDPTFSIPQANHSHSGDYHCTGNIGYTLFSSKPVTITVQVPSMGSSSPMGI
Described as above. The method, then: as §2

The target of a further assay is T7, human FcγRI (human, UniProt P12314 16-288).
T7 construct: also called FcgRI
The assay is described as above. The method, then: as §2

The target in another assay is T8, human FcγRIIIA-158V (human, UniProt P08637 17-208).
T8 construct: also called FcgRIIIa (158V); hFcgRIIIA-158V
The description is as above. The method, then: as §2

Sequence of C1q (P02745 23-245 limits assumed, chain 1 of 3): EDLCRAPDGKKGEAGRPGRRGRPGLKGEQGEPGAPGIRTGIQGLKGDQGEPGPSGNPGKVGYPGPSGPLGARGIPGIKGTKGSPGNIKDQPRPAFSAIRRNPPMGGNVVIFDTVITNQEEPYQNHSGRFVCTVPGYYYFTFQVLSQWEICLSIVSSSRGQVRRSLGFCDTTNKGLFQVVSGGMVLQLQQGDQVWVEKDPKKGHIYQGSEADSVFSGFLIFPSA
Sequence of C1q (P02746 28-253 limits assumed, chain 2 of 3): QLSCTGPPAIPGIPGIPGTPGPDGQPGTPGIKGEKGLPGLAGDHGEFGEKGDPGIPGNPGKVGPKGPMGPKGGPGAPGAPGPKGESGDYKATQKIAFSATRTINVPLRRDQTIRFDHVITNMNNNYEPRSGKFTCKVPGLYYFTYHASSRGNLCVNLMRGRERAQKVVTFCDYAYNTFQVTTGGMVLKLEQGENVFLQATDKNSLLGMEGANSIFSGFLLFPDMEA
Sequence of C1q (P02747 29-245 limits assumed, chain 3 of 3): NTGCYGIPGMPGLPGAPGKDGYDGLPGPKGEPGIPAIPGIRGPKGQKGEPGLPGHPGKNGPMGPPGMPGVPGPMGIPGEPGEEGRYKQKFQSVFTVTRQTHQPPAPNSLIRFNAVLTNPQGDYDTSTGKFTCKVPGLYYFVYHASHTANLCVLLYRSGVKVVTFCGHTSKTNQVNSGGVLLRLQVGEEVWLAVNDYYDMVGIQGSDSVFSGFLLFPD
T7 sequence (P12314 16-288 limits assumed): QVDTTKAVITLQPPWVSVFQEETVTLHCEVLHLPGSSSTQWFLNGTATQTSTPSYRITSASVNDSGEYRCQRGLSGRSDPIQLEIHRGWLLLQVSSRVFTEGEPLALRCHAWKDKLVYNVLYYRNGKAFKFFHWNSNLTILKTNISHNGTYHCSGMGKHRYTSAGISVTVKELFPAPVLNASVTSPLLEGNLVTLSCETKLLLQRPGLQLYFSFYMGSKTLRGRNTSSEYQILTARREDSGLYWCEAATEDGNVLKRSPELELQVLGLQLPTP
T4 sequence (P08637 17-208 limits assumed): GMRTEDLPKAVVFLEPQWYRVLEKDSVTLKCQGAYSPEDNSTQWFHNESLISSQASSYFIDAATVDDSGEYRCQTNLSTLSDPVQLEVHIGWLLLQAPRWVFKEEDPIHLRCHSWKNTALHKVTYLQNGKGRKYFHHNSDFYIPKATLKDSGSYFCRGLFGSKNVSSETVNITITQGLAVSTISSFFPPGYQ
T8 sequence (P08637 17-208 F176V limits assumed): as the sequence (P08637 17-208 limits assumed) above, with F160V counted along it

B1: Bs2Ab-39SH (bispecific antibody, human IgG1, kappa)
heavy: not shown
light: DIVMTQTPLSLSVTPGQPASISCKSSQSVFFRSNNKNILAWYLQKPGQPPQLLIYWASSRESGVPDRFSGSGSGTDFTLKISRVEAEDVGVYYCQQYFGSPFTFGPGTKVDIKRTVAAPSVFIFPPSDEQLKSGTASVVCLLNNFYPREAKVQWKVDNALQSGNSQESVTEQDSKDSTYSLSSTLTLSKADYEKHKVYACEVTHQGLSSPVTKSFNRGEC
In the case of B1, the binding result in [1], in assay [2] and in [3] was “no binding” in each case. Besides, the Kd (usually the free concentration of one partner at which half of the binding sites on the other are occupied at equilibrium, for simple one-to-one binding) in the assay with C1q was 75.6 nM; in the assay with human FcγRIIIA-158F, 1990 nM; in the assay with human FcγRIIb, 2750 nM; in the assay with human FcγRIIA it was 1300 nM; with human FcγRI, 7 nM.

B2: Bs4Ab-39SH_aFuc (bispecific antibody)
heavy: not shown
light: DIVMTQTPLSLSVTPGQPASISCKSSQSVFFRSNNKNILAWYLQKPGQPPQLLIYWASSRESGVPDRFSGSGSGTDFTLKISRVEAEDVGVYYCQQYFGSPFTFGPGTKVDIKRTVAAPSVFIFPPSDEQLKSGTASVVCLLNNFYPREAKVQWKVDNALQSGNSQESVTEQDSKDSTYSLSSTLTLSKADYEKHKVYACEVTHQGLSSPVTKSFNRGEC
notes: also called afucosylated Bs4Ab-39SH; homogenously afucosylated Bs4Ab-39SH
With B2, the Kd came out at 446 nM with C1q; 223 nM with human FcγRIIIA-158F; 2560 nM with human FcγRIIb; 1260 nM with human FcγRIIA; 45 nM with human FcγRIIIA-158V; 0.98 nM with human FcγRI.

B3: Bs4Ab-39SH (bispecific antibody)
heavy: not shown
light: DIVMTQTPLSLSVTPGQPASISCKSSQSVFFRSNNKNILAWYLQKPGQPPQLLIYWASSRESGVPDRFSGSGSGTDFTLKISRVEAEDVGVYYCQQYFGSPFTFGPGTKVDIKRTVAAPSVFIFPPSDEQLKSGTASVVCLLNNFYPREAKVQWKVDNALQSGNSQESVTEQDSKDSTYSLSSTLTLSKADYEKHKVYACEVTHQGLSSPVTKSFNRGEC
With B3, the binding result in assay [1], in [2] and in assay [3] was “no binding” in each case. Further, the Kd with C1q amounted to 88.6 nM; in the assay with human FcγRIIIA-158F it was 1780 nM; with human FcγRIIb it was 2790 nM; with human FcγRIIA it was 1190 nM; with human FcγRI, 13 nM.

B4: Bs3Ab-39SH (bispecific antibody, human IgG1, kappa)
heavy: not shown
light: DIVMTQTPLSLSVTPGQPASISCKSSQSVFFRSNNKNILAWYLQKPGQPPQLLIYWASSRESGVPDRFSGSGSGTDFTLKISRVEAEDVGVYYCQQYFGSPFTFGPGTKVDIKRTVAAPSVFIFPPSDEQLKSGTASVVCLLNNFYPREAKVQWKVDNALQSGNSQESVTEQDSKDSTYSLSSTLTLSKADYEKHKVYACEVTHQGLSSPVTKSFNRGEC
Regarding B4, the binding result in assay [1], in assay [2] and in assay [3] was “no binding” each time.

B5: Bs2Ab-39SH_aFuc (bispecific antibody, human IgG1, kappa)
heavy: not shown
light: DIVMTQTPLSLSVTPGQPASISCKSSQSVFFRSNNKNILAWYLQKPGQPPQLLIYWASSRESGVPDRFSGSGSGTDFTLKISRVEAEDVGVYYCQQYFGSPFTFGPGTKVDIKRTVAAPSVFIFPPSDEQLKSGTASVVCLLNNFYPREAKVQWKVDNALQSGNSQESVTEQDSKDSTYSLSSTLTLSKADYEKHKVYACEVTHQGLSSPVTKSFNRGEC
notes: also called afucosylated Bs2Ab-39SH; homogenously afucosylated Bs2Ab-39SH
With B5, the Kd with C1q came out at 130 nM; with human FcγRIIIA-158F, 216 nM; with human FcγRIIb it was 2400 nM; in the assay with human FcγRIIA it was 1250 nM; with human FcγRIIIA-158V it was 40 nM; with human FcγRI, 0.98 nM.

B6: Bs2-4T (bispecific antibody, name in EU numbering)
heavy: not shown
light: DIVMTQTPLSLSVTPGQPASISCKSSQSVFFRSNNKNILAWYLQKPGQPPQLLIYWASSRESGVPDRFSGSGSGTDFTLKISRVEAEDVGVYYCQQYFGSPFTFGPGTKVDIKRTVAAPSVFIFPPSDEQLKSGTASVVCLLNNFYPREAKVQWKVDNALQSGNSQESVTEQDSKDSTYSLSSTLTLSKADYEKHKVYACEVTHQGLSSPVTKSFNRGEC
modifications: tubulysin 1508 (Compound T32) on engineered Cys 239 and Cys 442 (EU index), thiol-maleimide linkage
notes: Antibody-drug conjugate, DAR about 4; also called Bs2Ab-4T; Bs2Ab-39SH-(FCC) construct conjugated to 4 tubulysins
Turning to B6, the binding result in [1], in [2] and in [3] was “no binding” in each case.

B7: Bs4-4T (bispecific antibody)
heavy: not shown
light: DIVMTQTPLSLSVTPGQPASISCKSSQSVFFRSNNKNILAWYLQKPGQPPQLLIYWASSRESGVPDRFSGSGSGTDFTLKISRVEAEDVGVYYCQQYFGSPFTFGPGTKVDIKRTVAAPSVFIFPPSDEQLKSGTASVVCLLNNFYPREAKVQWKVDNALQSGNSQESVTEQDSKDSTYSLSSTLTLSKADYEKHKVYACEVTHQGLSSPVTKSFNRGEC
modifications: tubulysin 1508 (Compound T32) on engineered Cys 239 and Cys 442 (EU index), thiol-maleimide linkage
notes: Antibody-drug conjugate, DAR about 4; also called Bs4Ab-4T; Bs4Ab-39SH-(FCC) conjugated to 4 tubulysins
Regarding B7, the binding result in assay [1], in assay [2] and in assay [3] was “no binding” throughout.
